Results taken from publication PMC13598225, “Alternative splicing of synaptotagmin 7 regulates oligomerization and short-term synaptic plasticity” (Proceedings of the National Academy of Sciences of the …, 2026).

Molecular target: T1, α-syt7cyto immobilised for HaloTag pull-down (UniProt Q9R0N7-1 38-403)
T1 construct: synaptotagmin 7, α splice variant, cytoplasmic domain; The sentence on syt1-fl says only 'immobilized syt7'; also called immobilized syt7
Assay: pull-down; HaloTag pull-down; syt7 immobilised; syt1-fl reconstituted into liposomes; Ca2+ against EGTA
Details: both partners purified

T1 sequence (Q9R0N7 38-403): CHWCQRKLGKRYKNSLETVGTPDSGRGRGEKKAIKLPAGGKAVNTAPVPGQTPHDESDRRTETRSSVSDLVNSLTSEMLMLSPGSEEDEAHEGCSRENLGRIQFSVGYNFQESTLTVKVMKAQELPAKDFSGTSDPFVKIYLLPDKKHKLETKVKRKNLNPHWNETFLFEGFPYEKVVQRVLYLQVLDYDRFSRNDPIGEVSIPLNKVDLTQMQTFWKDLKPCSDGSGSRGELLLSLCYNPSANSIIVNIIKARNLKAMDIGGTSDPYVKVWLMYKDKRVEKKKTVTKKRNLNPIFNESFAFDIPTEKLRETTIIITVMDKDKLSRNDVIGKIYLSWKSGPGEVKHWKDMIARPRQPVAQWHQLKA

binding in Ca2+ relative to EGTA (ratio): 1.46 ± 0.15
B1: syt1-fl reconstituted into liposomes (full-length synaptotagmin 1) (natural protein, UniProt P21707 1-421, looked up)
chain: MVSASHPEALAAPVTTVATLVPHNATEPASPGEGKEDAFSKLKQKFMNELHKIPLPPWALIAIAIVAVLLVVTCCFCVCKKCLFKKKNKKKGKEKGGKNAINMKDVKDLGKTMKDQALKDDDAETGLTDGEEKEEPKEEEKLGKLQYSLDYDFQNNQLLVGIIQAAELPALDMGGTSDPYVKVFLLPDKKKKFETKVHRKTLNPVFNEQFTFKVPYSELGGKTLVMAVYDFDRFSKHDIIGEFKVPMNTVDFGHVTEEWRDLQSAEKEEQEKLGDICFSLRYVPTAGKLTVVILEAKNLKKMDVGGLSDPYVKIHLMQNGKRLKKKKTTIKKNTLNPYYNESFSFEVPFEQIQKVQVVVTVLDYDKIGKNDAIGKVFVGYNSTGAELRHWSDMLANPRRPIAQWHTLQVEEEVDAMLAVKK
notes: synaptotagmin 1, full length (fl); Construct and host are in SI Appendix; source: reconstituted into liposomes
